The results in this text go back to paper PMC5382721 (Cell reports, 2017).

The target of experiment [1] is eIF1 (yeast (S. cerevisiae)) (UniProt P32911). As to the kind of experiment: ITC. On the technique in general: Isothermal titration calorimetry measures the heat released or taken up as one component is titrated into another.
In experiment [2] the target is GST-eIF3c-G_(1–58) (yeast (S. cerevisiae)) (UniProt P32497). Nature of the experiment: pull-down.
In experiment [3] the target is GST-eIF3c-E_(87–163) (yeast (S. cerevisiae)) (UniProt P32497). As to the kind of experiment: pull-down.
The next experiment concerns the target eIF1 (yeast (S. cerevisiae), UniProt P32911 1-108). As to the kind of experiment: ITC.
For the next experiment, the target named is eIF1-L96P (yeast (S. cerevisiae), UniProt P32911 1-108, L96P). As to the kind of experiment: ITC.
Sequence of eIF1-L96P (P32911 whole entry L96P): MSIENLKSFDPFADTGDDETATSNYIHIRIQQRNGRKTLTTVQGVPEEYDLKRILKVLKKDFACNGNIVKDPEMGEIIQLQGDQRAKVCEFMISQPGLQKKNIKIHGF
In the next experiment the target is eIF1-K37E (yeast (S. cerevisiae), UniProt P32911 1-108, K37E). As to the kind of experiment: ITC.
Sequence of eIF1-K37E (P32911 whole entry K37E): as the sequence (P32911 whole entry L96P) above, with K37E, P96L counted along it

Sequence of eIF1 (P32911 whole entry): as the sequence (P32911 whole entry L96P) above, with P96L counted along it
Sequence of eIF1 (yeast (S. cerevisiae)) (P32911 whole entry): as the sequence (P32911 whole entry L96P) above, with P96L counted along it

In experiment [1], “eIF3c-E_(87–163) (from UniProt P32497 87-163) (domain or fragment)” showed a Kd of over 100000 nM and a stoichiometry N (eIF3c molecules bound per eIF1 molecule) of 0.4. With “eIF1 (from UniProt P32911 1-108) (natural protein)”, the amount of eIF1 bound relative to that bound to GST-eIF3c-F in experiment [2] and in experiment [3] was under 10% throughout.

B1: eIF3c-D_(58–163) (domain or fragment, yeast (S. cerevisiae), UniProt P32497 58-163, looked up)
chain: ADVDSDDSDAKPYGPDWFKKSEFRKQGGGSNKFLKSSNYDSSDEESDEEDGKKVVKSAKEKLLDEMQDVYNKISQAENSDDWLTISNEFDLISRLLVRAQQQNWGT
As to B1, in the experiment with eIF1, the dissociation constant Kd is about 8000 nM and the “stoichiometry N” value was 1 eIF3c molecules bound per eIF1 molecule.

B2: eIF3c-B_(36–163) (domain or fragment, yeast (S. cerevisiae), UniProt P32497 36-163, looked up)
chain: SESELDQESDDSFFNESESESEADVDSDDSDAKPYGPDWFKKSEFRKQGGGSNKFLKSSNYDSSDEESDEEDGKKVVKSAKEKLLDEMQDVYNKISQAENSDDWLTISNEFDLISRLLVRAQQQNWGT
Turning to B2, the “fold reduction of affinity against WT eIF1” value in the experiment with eIF1-L96P stood at 10 fold. The “fold reduction of binding against WT eIF1” value with eIF1-K37E was found to be 4 fold.

B3: eIF3c-C_(36–87) (domain or fragment, yeast (S. cerevisiae), UniProt P32497 36-87, looked up)
chain: SESELDQESDDSFFNESESESEADVDSDDSDAKPYGPDWFKKSEFRKQGGGS
B3: the Kd with eIF1 was about 1000 nM.

B4: eIF3c-F_(1–87) (domain or fragment, yeast (S. cerevisiae), UniProt P32497 1-87, looked up)
chain: MSRFFSSNYEYDVASSSSEEDLLSSSEEDLLSSSSSESELDQESDDSFFNESESESEADVDSDDSDAKPYGPDWFKKSEFRKQGGGS
With B4, the Kd in the experiment with eIF1 is about 1000 nM.

A word on the Kd: it is a measure of binding affinity in units of concentration. Read a high Kd as lower affinity.
